Experimental findings from PMC9960064 (The Journal of Cell Biology, 2023) are described below.

By Kd is commonly meant the free concentration of one partner at which half of the binding sites on the other are occupied at equilibrium, for simple one-to-one binding. A high value points to weaker binding. By stoichiometry N is commonly meant the number of molecules, sites or subunits per partner or assembly.

Where “and” joins values, the source holds several entries; their conditions need not be identical. Identical values can stand only once. Some results are limits rather than exact numbers.

Assay [1] addresses T1, untagged β′-COP residues 1–604 (yeast (S. cerevisiae), UniProt P41811 1-604).
T1 sequence (looked up): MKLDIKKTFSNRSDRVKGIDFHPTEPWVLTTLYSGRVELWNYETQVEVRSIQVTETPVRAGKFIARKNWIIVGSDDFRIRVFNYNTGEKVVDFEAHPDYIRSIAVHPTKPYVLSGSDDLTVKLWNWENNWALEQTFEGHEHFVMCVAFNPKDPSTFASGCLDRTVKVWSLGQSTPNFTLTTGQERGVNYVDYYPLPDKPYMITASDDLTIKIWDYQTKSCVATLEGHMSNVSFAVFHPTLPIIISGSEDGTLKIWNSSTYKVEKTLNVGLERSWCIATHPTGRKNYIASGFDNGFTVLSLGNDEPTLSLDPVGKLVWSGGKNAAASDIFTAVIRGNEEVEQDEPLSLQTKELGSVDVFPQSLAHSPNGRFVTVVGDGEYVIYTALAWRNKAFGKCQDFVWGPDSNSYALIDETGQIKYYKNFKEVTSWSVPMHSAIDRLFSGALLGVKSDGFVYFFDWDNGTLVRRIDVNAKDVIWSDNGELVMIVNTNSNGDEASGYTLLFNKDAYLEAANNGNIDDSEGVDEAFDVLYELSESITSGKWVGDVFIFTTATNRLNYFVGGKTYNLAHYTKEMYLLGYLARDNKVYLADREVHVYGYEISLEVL
Put plainly: ITC. For orientation: In ITC the heat of successive injections is recorded.

For assay [2], the target named is T2, β′604-H6 (yeast (S. cerevisiae), UniProt P41811 1-604).
T2 sequence (looked up): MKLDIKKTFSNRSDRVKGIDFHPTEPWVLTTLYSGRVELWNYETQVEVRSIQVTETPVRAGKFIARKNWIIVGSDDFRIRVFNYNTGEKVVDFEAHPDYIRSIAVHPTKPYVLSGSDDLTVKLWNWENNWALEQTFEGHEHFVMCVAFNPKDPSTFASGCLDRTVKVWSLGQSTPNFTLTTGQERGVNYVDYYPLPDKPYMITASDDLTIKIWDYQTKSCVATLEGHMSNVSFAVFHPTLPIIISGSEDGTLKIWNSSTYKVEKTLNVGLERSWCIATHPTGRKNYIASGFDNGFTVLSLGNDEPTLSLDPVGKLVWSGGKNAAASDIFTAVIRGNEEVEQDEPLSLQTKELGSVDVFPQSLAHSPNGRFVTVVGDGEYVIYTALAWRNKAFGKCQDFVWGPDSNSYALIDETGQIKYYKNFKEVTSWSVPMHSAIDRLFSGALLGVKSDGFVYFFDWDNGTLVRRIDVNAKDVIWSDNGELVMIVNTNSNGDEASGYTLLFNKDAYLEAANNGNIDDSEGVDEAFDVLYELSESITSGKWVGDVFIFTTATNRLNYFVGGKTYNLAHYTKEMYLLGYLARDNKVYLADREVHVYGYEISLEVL
Put plainly: pull-down.

Assay [3] addresses T3, N-terminal β′-COP propeller (residues 1–304), untagged (yeast (S. cerevisiae), UniProt P41811 1-304).
T3 sequence (looked up): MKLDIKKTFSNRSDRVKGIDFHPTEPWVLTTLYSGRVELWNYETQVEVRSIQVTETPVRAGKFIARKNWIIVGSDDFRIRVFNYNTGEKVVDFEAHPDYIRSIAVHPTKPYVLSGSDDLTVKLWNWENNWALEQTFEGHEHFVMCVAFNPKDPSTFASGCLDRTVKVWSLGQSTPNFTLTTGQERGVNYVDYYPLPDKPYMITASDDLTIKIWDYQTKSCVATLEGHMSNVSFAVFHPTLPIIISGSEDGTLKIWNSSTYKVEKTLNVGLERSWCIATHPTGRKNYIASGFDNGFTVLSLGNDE
The assay is described as follows: ITC.

Assay [4] has as its target T4, β′-COP D98A/D117A, residues 1–604, untagged (yeast (S. cerevisiae), UniProt P41811 1-604, D98A | D117A).
T4 sequence (looked up): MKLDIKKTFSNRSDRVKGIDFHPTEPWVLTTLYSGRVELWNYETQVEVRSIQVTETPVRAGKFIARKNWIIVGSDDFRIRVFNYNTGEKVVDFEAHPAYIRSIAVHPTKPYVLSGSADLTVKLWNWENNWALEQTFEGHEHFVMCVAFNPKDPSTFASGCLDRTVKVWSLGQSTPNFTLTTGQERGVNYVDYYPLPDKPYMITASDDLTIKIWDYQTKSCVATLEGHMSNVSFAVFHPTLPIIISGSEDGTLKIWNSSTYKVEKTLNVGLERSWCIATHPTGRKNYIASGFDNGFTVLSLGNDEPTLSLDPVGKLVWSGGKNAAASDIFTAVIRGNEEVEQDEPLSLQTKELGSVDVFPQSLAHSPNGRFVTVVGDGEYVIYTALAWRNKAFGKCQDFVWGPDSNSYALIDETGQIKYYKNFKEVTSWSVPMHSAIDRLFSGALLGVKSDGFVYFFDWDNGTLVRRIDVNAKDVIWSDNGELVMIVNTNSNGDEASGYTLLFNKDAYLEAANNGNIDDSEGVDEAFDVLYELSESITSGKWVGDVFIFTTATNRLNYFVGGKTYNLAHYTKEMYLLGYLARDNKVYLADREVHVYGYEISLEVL
The assay is described as follows: ITC.

The target of assay [5] is T5, mutant β′-COP (D437A/D450A), residues 1–604, untagged (yeast (S. cerevisiae), UniProt P41811 1-604, D437A | D450A).
T5 sequence (looked up): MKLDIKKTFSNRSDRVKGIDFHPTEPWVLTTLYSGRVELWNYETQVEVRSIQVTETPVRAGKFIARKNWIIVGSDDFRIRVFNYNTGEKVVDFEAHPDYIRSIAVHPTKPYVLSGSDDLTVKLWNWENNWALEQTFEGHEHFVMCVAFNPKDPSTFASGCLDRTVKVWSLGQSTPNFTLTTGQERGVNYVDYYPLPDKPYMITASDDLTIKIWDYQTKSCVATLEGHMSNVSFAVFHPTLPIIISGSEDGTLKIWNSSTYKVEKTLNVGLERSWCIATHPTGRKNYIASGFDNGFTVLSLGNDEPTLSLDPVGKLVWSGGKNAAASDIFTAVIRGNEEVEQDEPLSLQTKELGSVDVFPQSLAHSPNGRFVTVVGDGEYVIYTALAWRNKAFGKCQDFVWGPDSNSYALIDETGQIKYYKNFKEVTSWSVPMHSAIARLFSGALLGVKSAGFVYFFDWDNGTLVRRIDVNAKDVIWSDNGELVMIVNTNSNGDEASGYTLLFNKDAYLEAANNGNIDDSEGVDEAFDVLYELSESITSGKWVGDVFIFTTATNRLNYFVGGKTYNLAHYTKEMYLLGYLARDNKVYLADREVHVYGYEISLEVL
Put plainly: ITC.

The target in assay [6] is T6, β′-COP residues 1–604 with a C-terminal GST tag (yeast (S. cerevisiae), UniProt P41811 1-604).
T6 sequence (looked up): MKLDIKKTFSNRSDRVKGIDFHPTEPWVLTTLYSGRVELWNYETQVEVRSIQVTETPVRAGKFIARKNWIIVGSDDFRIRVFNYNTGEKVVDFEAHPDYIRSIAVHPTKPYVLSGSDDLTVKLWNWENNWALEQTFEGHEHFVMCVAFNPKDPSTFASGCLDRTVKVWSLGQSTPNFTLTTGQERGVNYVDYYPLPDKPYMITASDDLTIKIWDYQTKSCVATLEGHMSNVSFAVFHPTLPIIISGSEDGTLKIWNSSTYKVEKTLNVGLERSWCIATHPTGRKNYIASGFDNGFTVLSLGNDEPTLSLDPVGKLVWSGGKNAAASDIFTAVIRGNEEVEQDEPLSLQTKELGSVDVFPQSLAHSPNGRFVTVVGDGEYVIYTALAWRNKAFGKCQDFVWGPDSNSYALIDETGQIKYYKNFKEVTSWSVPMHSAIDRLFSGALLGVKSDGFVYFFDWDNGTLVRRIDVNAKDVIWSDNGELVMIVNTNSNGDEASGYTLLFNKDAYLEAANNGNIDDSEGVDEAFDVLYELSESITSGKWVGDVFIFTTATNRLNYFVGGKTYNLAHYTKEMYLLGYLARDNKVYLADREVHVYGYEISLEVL
The assay is described as follows: pull-down.

B1: Glo3 residues 230–270, untagged (domain or fragment, yeast (S. cerevisiae), UniProt P38682 230-270, looked up)
chain: SQDKKKHSILSSSRKPTRLTAKKVDKSQAEDLFDQFKKEAQ
Consider B1, for which the binding result in assay [1] is listed as “binds”.

B2: GST-BoCCS, Glo3 residues 208–383 (domain or fragment, yeast (S. cerevisiae), UniProt P38682 208-383, looked up)
chain: KTTVTKTRSSILTASRKKPVLNSQDKKKHSILSSSRKPTRLTAKKVDKSQAEDLFDQFKKEAQQEKEDEFTNSSSSTKIRQNDYDSQFMNNSKGNNNNSIDDINTQPDEFNDFLNDTSNSFDTTRKEQQDTLTPKFAKLGFGMTMNDANDLAKQQKESQKIAQGPRYTGRIAERYG
For B2, in assay [2], the binding result is given as “binds”.

B3: Glo3 residues 220–290, untagged (domain or fragment, yeast (S. cerevisiae), UniProt P38682 220-290, looked up)
chain: TASRKKPVLNSQDKKKHSILSSSRKPTRLTAKKVDKSQAEDLFDQFKKEAQQEKEDEFTNSSSSTKIRQND
On to B3, for which, in assay [1], the binding result is given as “binds”.

B4: untagged Glo3 BoCCS fragment (residues 230–300) (domain or fragment, yeast (S. cerevisiae), UniProt P38682 230-300, looked up)
chain: SQDKKKHSILSSSRKPTRLTAKKVDKSQAEDLFDQFKKEAQQEKEDEFTNSSSSTKIRQNDYDSQFMNNSK
In assay [3], B4 displayed a Kd below 300 µM. In addition, in assay [1], the dissociation constant (Kd) is around 1 µM and the “stoichiometry N” value was determined as 1.

B5: untagged Glo3 residues 230–290 (domain or fragment, yeast (S. cerevisiae), UniProt P38682 230-290, looked up)
chain: SQDKKKHSILSSSRKPTRLTAKKVDKSQAEDLFDQFKKEAQQEKEDEFTNSSSSTKIRQND
Take B5: in assay [1], the Kd was 0.6 µM and 0.8 to 6 µM; the “stoichiometry N” value was 1. For the same molecule, the binding result in assay [4] is listed as “binds”. This molecule also showed a dissociation constant Kd in assay [5] of 18 µM.

B6: Glo3 (residues 230–290) K233E/K234E/K235E (domain or fragment, yeast (S. cerevisiae), UniProt P38682 230-290, looked up)
chain: SQDEEEHSILSSSRKPTRLTAKKVDKSQAEDLFDQFKKEAQQEKEDEFTNSSSSTKIRQND
On to B6, for which, in assay [1], the Kd is below 300 µM.

B7: Glo3 (residues 230–290) K233E (domain or fragment, yeast (S. cerevisiae), UniProt P38682 230-290, looked up)
chain: SQDEKKHSILSSSRKPTRLTAKKVDKSQAEDLFDQFKKEAQQEKEDEFTNSSSSTKIRQND
In assay [1], B7 had a Kd of around 12 µM.

B8: Glo3 (residues 230–290) K251E/K252E/K255E (domain or fragment, yeast (S. cerevisiae), UniProt P38682 230-290, looked up)
chain: SQDKKKHSILSSSRKPTRLTAEEVDESQAEDLFDQFKKEAQQEKEDEFTNSSSSTKIRQND
Take B8: the Kd in assay [1] was around 12 µM.

B9: full-length Glo3-H8 (natural protein)
chain: not shown
As for B9, in assay [6], the binding result is listed as “binds”.
